Measurements reported in article PMC3936751.

Key:
[1] = test system: T1, hCdc45-His6 (Homo sapiens); assay: SPR; settings: 3 mM EDTA, EMSA: 50 mM HEPES-KOH pH 7.5, 150 mM KCl, 0.5 mM DTT, 50 ug/ml BSA, 30 C 10 min, SPR: 20 mM HEPES-KOH pH 7.5, 150 mM KCl, 1 mM DTT, 0.005% P20 …; for Kd: Cdc45 immobilized by anti-His; for binding signal: scale: fold weaker than Y/bubble
T1 sequence: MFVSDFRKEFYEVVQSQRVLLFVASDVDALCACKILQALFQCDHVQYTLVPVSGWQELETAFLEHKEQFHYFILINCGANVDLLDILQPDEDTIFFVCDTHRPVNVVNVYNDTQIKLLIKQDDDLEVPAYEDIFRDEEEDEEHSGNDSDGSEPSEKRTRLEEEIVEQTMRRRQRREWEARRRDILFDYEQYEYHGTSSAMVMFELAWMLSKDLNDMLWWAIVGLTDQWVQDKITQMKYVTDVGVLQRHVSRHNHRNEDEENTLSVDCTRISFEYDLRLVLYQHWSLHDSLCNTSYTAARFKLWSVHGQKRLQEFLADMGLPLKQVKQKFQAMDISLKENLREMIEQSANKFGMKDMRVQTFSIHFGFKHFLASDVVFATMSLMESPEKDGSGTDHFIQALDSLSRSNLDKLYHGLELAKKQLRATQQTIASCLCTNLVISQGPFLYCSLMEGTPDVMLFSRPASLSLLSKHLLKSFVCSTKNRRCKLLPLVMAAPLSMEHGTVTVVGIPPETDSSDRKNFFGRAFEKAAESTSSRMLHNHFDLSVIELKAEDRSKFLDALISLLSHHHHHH

[2] = test system: T1, hCdc45-His6 (Homo sapiens); assay: EMSA; settings: EMSA: 50 mM HEPES-KOH pH 7.5, 150 mM KCl, 0.5 mM DTT, 50 ug/ml BSA, 30 C 10 min, SPR: 20 mM HEPES-KOH pH 7.5, 150 mM KCl, 1 mM DTT, 3 mM EDTA, 0.005% P20 …

Substance | Kd [1] [nM] | binding signal [1] | other results
Y-shaped DNA M3S4 (17 bp, two 17-mer overhangs) | 7.7 | – | –
bubble M5M6 (22 bp, 20 nt bubble, 22 bp) | 8 | – | –
67-mer ssDNA | – | – | binding signal (fold less efficient than 113-mer) ([2]; 2 nM DNA): 8.5
113-mer ssDNA | – | – | binding signal (% bound at 5 uM Cdc45) [2]: 85
D-loop M5M6M2 | – | > 10 | –
R-loop | – | > 10 | –
